We go through ten molecules from paper PMC5760450, “FzlA, an essential regulator of FtsZ filament curvature, controls constriction rate during Caulobacter division” (Molecular Microbiology, 2017).

The chains are these.
T1: FtsZ (purified, C. crescentus) (Caulobacter crescentus, UniProt B8H080 1-508)
T1 construct: FtsZ, Caulobacter crescentus; In the assays it was polymerised with GTP and MgCl2; source: E. coli Rosetta (DE3) pLysS, purified as previously described (Sundararajan et al., 2015)
T1 sequence (looked up): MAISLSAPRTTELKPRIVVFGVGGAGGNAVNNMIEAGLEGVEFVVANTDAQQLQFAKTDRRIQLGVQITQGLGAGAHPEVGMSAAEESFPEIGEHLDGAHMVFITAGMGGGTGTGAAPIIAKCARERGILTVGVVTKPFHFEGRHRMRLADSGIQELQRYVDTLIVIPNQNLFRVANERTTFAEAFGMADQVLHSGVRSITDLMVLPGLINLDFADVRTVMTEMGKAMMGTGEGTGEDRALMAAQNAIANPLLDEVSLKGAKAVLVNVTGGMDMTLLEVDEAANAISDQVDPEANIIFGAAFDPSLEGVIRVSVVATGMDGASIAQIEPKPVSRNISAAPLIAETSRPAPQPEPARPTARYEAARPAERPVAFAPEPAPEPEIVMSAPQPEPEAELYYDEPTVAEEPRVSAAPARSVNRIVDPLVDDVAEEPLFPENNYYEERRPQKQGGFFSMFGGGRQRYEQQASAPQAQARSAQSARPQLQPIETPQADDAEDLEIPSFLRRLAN

B1: untagged WT FzlA (natural protein, Caulobacter crescentus)
chain: MSVERTLHHFPLDPASRQVRLALGEKRLPFVEMQVRYWEMPPEFTSLNPSGMPPVLVETKHQRNLVICETRAILEHIEETETEPPLLGRDPAERAEARRLLQWFDRKFDNEVNGFLLHEKMEKRLLRMGAPDLAALRQGREALRMHLGYIESLLQTRDWLAGRRMSLADFAAAAHLSVIDYFGDVPWKDFQAAKTWYMKLKSRPCFRPILADRWPGLAPAAHYDDLDF
notes: FzlA, Caulobacter crescentus; source: E. coli Rosetta (DE3) pLysS, purified (HisTrap, His6-SUMO cleaved with His6-ULP, second HisTrap flow through)
B2: FzlA^UE1 (Y223A D227K F228A) (natural protein, Caulobacter crescentus)
chain: B1 chain with Y223A, D227K, F228A
notes: FzlA, Caulobacter crescentus, with Y223A D227K F228A; also called unknown essential activity; source: E. coli Rosetta (DE3) pLysS, purified (HisTrap, His6-SUMO cleaved)
B3: FzlA^UE2 (D227K) (natural protein, Caulobacter crescentus)
chain: B1 chain with D227K
notes: FzlA, Caulobacter crescentus, with D227K; also called unknown essential activity; source: E. coli Rosetta (DE3) pLysS, purified (HisTrap, His6-SUMO cleaved)
B4: FzlA^UN1 (P131A) (natural protein, Caulobacter crescentus)
chain: B1 chain with P131A
notes: FzlA, Caulobacter crescentus, with P131A; also called unknown nonessential activity; source: E. coli Rosetta (DE3) pLysS, purified (HisTrap, His6-SUMO cleaved)
B5: FzlA^NB2 (E119K) (natural protein, Caulobacter crescentus)
chain: B1 chain with E119K
notes: FzlA, Caulobacter crescentus, with E119K; source: E. coli Rosetta (DE3) pLysS, purified (HisTrap, His6-SUMO cleaved)
B6: FzlA^NB1 (W38A R124D) (natural protein, Caulobacter crescentus)
chain: B1 chain with W38A, R124D
notes: FzlA, Caulobacter crescentus, with W38A R124D; Self-aggregates under the standard conditions (pH 6.5, 2:1 FzlA:FtsZ); source: E. coli Rosetta (DE3) pLysS, purified (HisTrap, His6-SUMO cleaved)
B7: FzlA^NH1 (P131A L136A R137E) (natural protein, Caulobacter crescentus)
chain: B1 chain with P131A, L136A, R137E
notes: FzlA, Caulobacter crescentus, with P131A L136A R137E; also called no helices; source: E. coli Rosetta (DE3) pLysS, purified (HisTrap, His6-SUMO cleaved)
B8: FzlA^NH2 (R140D E141K) (natural protein, Caulobacter crescentus)
chain: B1 chain with R140D, E141K
notes: FzlA, Caulobacter crescentus, with R140D E141K; also called no helices; source: E. coli Rosetta (DE3) pLysS, purified (HisTrap, His6-SUMO cleaved)
B9: FzlA^NH3 (R144D) (natural protein, Caulobacter crescentus)
chain: B1 chain with R144D
notes: FzlA, Caulobacter crescentus, with R144D; also called no helices; source: E. coli Rosetta (DE3) pLysS, purified (HisTrap, His6-SUMO cleaved)

Numbering of substitutions follows the chain as printed. Names may count otherwise.

One experiment has as its target T1, FtsZ (purified, C. crescentus). The experiment in a line: co-sedimentation; low speed co-pelleting (higher order structures): 4 µM FzlA variant ± 2 µM FtsZ, 50 mM MES pH 6.5, 50 mM KCl, 2.5 mM MgCl2, 2 mM GTP, 16 000 x g 15 min room temperature. Particulars: both partners purified.
For B1, the “fold change of FzlA in pellet (with FtsZ vs. alone), low speed” value (from here on “fold change of FzlA in pellet … low speed”) came out at 11.1 fold.
As for B2, the “fold change of FzlA in pellet … low speed” value was found to be 6.1 fold.
Regarding B3, the “fold change of FzlA in pellet … low speed” value is 12.3 fold.
Still for that read-out and setting: the result for B4 reads 9.86 fold; that for B5, 1.18 fold.
On the same count and under the same terms, the result for B6 reads 1.25 fold.

For another experiment the target is unchanged. In words: cell-based or functional assay.
Settings: not given
For B2, the “% of FtsZ GTPase rate” value was 77.3%.
B3: the “% of FtsZ GTPase rate” value amounted to 42.6%.
Same read-out and setting: under B7 stands 86.2%.
B4: the “% of FtsZ GTPase rate” value turned out to be 55.7%.
The same measure, in the same setting: the result for B5 reads 98.9%.
The same measure, in the same setting: under B8 stands 85%; under B9, 89%; under B6, 96.3%.

The next experiment shares this target.
Test: not given
Settings: not given
Molecule “FzlA^WB1 (D109R E122K) (from UniProt A0A0H3CDY2 1-228) (natural protein)” gave a % of FtsZ GTPase rate of 85.5%.

The next experiment shares this target. In words: co-sedimentation; high speed co-pelleting: 4 µM FzlA variant ± 2 µM FtsZ, 50 mM MES pH 6.5, 50 mM KCl, 10 mM MgCl2, 2 mM GTP, 0.05% Triton X-100, 15 min room temperature, 280 000 x g 15 min 25°C; Coomassie gel quantified. Particulars: both partners purified.
As for B1, the “fold change of FzlA in pellet (with FtsZ vs. alone), high speed” value (“fold change of FzlA in pellet … high speed” below) was determined as 20.4 fold.
Regarding B2, the “fold change of FzlA in pellet … high speed” value was determined as 5.85 fold.
Still for that read-out and setting: the result for B3 reads 59 fold; that for B7, 2.34 fold.
In the case of B4, the “fold change of FzlA in pellet … high speed” value turned out to be 9.85 fold.
Same read-out and setting: the result for B5 reads 1.24 fold; that for B8, 7.21 fold; that for B9, 3.51 fold.
On to B6, for which the “fold change of FzlA in pellet … high speed” value was determined as 0.91 fold.
